Laboratory results as given in article PMC11241209, “Elucidation of the Gemcitabine Transporters of Escherichia coli K-12 and Gamma-Proteobacteria Linked to Gemcitabine-Related Chemoresistance” (International Journal of Molecular Sciences, 2024).
Where two headings read alike, the source gives them in different places.

Tests used:
[1] = tested on: Nc1ccn([C@@H]2O[C@H](CO)[C@@H](O)C2(F)F)c(=O)n1; experiment: cells, lysate or membranes; assay type: cell-based, Escherichia coli; settings: labelled compound, pH 6.5, 25 °C, glycerol-energized cells
[2] = tested on: Nc1ccn([C@@H]2O[C@H](CO)[C@@H](O)C2(F)F)c(=O)n1; experiment: cells, lysate or membranes; settings: labelled compound, pH 6.5, 25 °C, glycerol-energized cells
[3] = target: T1, NupG (Escherichia coli, UniProt P0AFF4); experiment: inhibition of [3H]-gemcitabine uptake in E. coli JW2389; assay type: cell-based
T1 construct: full-length, C-terminal biotin-acceptor domain tag (pT7-5/-BAD), expressed in E. coli JW2389 (nupC knockout)
T1 sequence (P0AFF4 1-418): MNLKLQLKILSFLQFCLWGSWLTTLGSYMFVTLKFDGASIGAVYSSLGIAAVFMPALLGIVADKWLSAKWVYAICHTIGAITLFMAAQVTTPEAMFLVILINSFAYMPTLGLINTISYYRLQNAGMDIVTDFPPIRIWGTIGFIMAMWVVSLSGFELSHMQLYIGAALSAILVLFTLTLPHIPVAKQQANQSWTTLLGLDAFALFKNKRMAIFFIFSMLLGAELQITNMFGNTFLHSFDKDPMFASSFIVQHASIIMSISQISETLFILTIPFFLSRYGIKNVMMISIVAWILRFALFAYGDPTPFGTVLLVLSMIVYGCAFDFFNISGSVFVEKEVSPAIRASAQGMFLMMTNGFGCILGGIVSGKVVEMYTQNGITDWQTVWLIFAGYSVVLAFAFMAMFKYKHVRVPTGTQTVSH
Source text: inhibition of [3H]-gemcitabine uptake in E. coli JW2389 on NupG

[4] = target: T2, KpNupG (Klebsiella pneumoniae, UniProt A6TDX2); experiment: as above; assay type: cell-based
T2 construct: gene nupG; full-length, C-terminal biotin-acceptor domain tag (pT7-5/-BAD), expressed in E. coli JW2389 (nupC knockout)
T2 sequence (A6TDX2 1-417): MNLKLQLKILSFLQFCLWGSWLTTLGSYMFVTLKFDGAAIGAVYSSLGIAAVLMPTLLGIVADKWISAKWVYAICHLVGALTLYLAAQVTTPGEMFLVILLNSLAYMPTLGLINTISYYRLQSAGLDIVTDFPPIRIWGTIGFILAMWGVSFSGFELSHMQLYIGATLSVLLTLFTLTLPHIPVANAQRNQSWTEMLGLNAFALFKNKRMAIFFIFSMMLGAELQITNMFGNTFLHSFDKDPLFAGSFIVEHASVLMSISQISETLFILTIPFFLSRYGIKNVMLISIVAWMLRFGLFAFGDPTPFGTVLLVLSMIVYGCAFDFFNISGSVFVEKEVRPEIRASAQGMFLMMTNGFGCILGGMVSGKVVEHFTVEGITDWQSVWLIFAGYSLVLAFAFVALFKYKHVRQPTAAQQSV
Source text: inhibition of [3H]-gemcitabine uptake in E. coli JW2389 on KpNupG

[5] = target: T3, NupC (Escherichia coli, UniProt P0AFF2); experiment: as above; assay type: cell-based; settings: read-out: Inhibition by Other Nucleosides / Ki (μM) (Adenosine)
T3 construct: full-length, C-terminal biotin-acceptor domain tag (pT7-5/-BAD), expressed in E. coli JW2389 (nupC knockout)
T3 sequence (P0AFF2 1-400): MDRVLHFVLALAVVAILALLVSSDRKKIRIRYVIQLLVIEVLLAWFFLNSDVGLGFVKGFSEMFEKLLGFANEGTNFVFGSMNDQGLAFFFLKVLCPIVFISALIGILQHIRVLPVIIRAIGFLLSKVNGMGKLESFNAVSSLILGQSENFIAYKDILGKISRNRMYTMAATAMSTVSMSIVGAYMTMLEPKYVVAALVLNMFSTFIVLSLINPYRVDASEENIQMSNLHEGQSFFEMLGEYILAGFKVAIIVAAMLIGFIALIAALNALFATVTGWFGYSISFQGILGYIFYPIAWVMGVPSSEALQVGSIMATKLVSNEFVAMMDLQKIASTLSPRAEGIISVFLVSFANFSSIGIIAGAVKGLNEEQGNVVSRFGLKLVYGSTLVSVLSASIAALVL
Source text: inhibition of [3H]-gemcitabine uptake in E. coli JW2389 on NupC

[6] = target: T4, KpNupC (Klebsiella pneumoniae, UniProt A0A0H3H172); experiment: as above; assay type: cell-based
T4 construct: gene KPHS_38160; full-length, C-terminal biotin-acceptor domain tag (pT7-5/-BAD), expressed in E. coli JW2389 (nupC knockout)
T4 sequence (A0A0H3H172 entry or part of it): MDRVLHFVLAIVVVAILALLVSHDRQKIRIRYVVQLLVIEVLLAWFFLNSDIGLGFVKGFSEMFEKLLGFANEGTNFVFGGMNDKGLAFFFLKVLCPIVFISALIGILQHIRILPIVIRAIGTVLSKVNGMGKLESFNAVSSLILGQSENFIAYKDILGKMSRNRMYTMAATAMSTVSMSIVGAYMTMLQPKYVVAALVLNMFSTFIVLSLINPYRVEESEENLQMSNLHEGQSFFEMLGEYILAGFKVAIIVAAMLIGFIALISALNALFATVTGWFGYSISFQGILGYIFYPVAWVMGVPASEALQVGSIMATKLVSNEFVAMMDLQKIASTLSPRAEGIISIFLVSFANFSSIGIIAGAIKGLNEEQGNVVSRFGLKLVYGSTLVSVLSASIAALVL
Source text: inhibition of [3H]-gemcitabine uptake in E. coli JW2389 on KpNupC

[7] = tested on: Nc1ccn([C@@H]2O[C@H](CO)[C@@H](O)C2(F)F)c(=O)n1; experiment: cells, lysate or membranes; assay type: cell-based, Klebsiella pneumoniae; settings: labelled compound, pH 6.5, 25 °C, glycerol-energized cells
[8] = target: T5, KpNupC2 (Klebsiella pneumoniae, UniProt A6T7A8); experiment: inhibition of [3H]-gemcitabine uptake in E. coli JW2389; assay type: cell-based
T5 construct: gene nupC; full-length, C-terminal biotin-acceptor domain tag (pT7-5/-BAD), expressed in E. coli JW2389 (nupC knockout)
T5 sequence (A6T7A8 entry or part of it): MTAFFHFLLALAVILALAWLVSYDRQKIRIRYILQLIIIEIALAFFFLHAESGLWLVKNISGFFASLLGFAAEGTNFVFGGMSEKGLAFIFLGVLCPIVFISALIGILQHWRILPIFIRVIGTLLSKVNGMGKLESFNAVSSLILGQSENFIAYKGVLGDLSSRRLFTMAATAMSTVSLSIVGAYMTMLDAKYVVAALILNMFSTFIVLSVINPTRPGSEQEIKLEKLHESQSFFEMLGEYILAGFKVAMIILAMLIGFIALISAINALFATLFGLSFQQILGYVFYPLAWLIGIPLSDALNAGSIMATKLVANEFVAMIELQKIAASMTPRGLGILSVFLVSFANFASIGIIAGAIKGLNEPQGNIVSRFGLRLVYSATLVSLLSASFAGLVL
Source text: inhibition of [3H]-gemcitabine uptake in E. coli JW2389 on KpNupC2

[9] = target: T6, CfNupC (Citrobacter freundii, UniProt A0A0D7LF62); experiment: as above; assay type: cell-based; settings: read-out: Inhibition by Other Nucleosides / Ki (μM) (Cytidine)
T6 construct: gene nupC; full-length, C-terminal biotin-acceptor domain tag (pT7-5/-BAD), expressed in E. coli JW2389 (nupC knockout)
T6 sequence (A0A0D7LF62 entry or part of it): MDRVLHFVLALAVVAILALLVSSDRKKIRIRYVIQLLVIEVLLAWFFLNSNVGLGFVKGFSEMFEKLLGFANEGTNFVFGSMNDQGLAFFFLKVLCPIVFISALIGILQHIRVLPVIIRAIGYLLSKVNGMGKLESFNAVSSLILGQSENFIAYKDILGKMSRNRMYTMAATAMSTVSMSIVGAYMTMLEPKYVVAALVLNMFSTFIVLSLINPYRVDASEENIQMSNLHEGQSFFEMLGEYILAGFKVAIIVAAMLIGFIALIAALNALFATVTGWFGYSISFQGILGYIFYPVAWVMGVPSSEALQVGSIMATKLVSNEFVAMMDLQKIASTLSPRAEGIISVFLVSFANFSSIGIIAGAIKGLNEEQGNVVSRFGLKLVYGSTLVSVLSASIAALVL
Source text: inhibition of [3H]-gemcitabine uptake in E. coli JW2389 on CfNupC

[10] = target: T7, CfNupG (Citrobacter freundii, UniProt A0A0D7LJ63); experiment: as above; assay type: cell-based; settings: read-out: Inhibition by Other Nucleosides / Ki (μM) (Cytidine)
T7 construct: gene nupG; full-length, C-terminal biotin-acceptor domain tag (pT7-5/-BAD), expressed in E. coli JW2389 (nupC knockout)
T7 sequence (A0A0D7LJ63 1-418): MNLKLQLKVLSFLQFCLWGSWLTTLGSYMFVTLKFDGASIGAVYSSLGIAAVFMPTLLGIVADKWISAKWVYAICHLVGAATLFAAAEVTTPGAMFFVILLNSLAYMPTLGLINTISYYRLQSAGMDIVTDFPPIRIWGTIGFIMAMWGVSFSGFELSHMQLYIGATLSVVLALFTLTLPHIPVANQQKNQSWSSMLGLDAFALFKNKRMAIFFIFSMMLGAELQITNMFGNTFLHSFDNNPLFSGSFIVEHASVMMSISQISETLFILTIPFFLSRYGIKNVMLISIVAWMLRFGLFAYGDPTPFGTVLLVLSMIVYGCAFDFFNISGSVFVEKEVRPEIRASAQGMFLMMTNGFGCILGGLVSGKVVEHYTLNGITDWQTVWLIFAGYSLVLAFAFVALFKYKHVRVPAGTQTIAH
Source text: inhibition of [3H]-gemcitabine uptake in E. coli JW2389 on CfNupG

[11] = tested on: Nc1ccn([C@@H]2O[C@H](CO)[C@@H](O)C2(F)F)c(=O)n1; experiment: cells, lysate or membranes; assay type: cell-based, Citrobacter freundii; settings: labelled compound, pH 6.5, 25 °C, glycerol-energized cells
[12] = substrate: Nc1ccn([C@@H]2O[C@H](CO)[C@@H](O)C2(F)F)c(=O)n1; experiment: cells, lysate or membranes; settings: labelled compound, pH 6.5, 25 °C, glycerol-energized cells; remark: listed apart in the source
[13] = read-out: Inhibition by Other Nucleosides / Ki (μM) (Cytidine)

Which Km [1] does the source give for NupC (Escherichia coli K-12) here?
The Km was 9.8 ± 1.0 µM.

What about the Vmax [1] of the same molecule?
Its Vmax is 0.0994 µmol/min/mg.

And the Vmax/Km [1]?
Its Vmax/Km is 10100 µL/min/mg.

What does the source list for “KpNupC (Klebsiella pneumoniae subsp. pneumoniae HS11286)”?
Km [2]: 10.9 ± 2.0 µM; Vmax [2]: 0.0928 µmol/min/mg; Vmax/Km [2]: 8600 µL/min/mg

For Nc1nc2c(ncn2[C@@H]2O[C@H](CO)[C@@H](O)[C@H]2O)c(=O)[nH]1 [guanosine], which Ki [3] is on record?
The Ki was 15.3 ± 5.8 µM.

And the Ki ([4]; read-out: Inhibition by Other Nucleosides / Ki (μM) (Guanosine))?
Its Ki is 18.3 ± 4.5 µM.

How did the Ki [5] turn out when Nc1ncnc2c1ncn2[C@@H]1O[C@H](CO)[C@@H](O)[C@H]1O [adenosine] was run?
The Ki was 5.4 ± 1.4 µM.

And the Ki ([6]; read-out: Inhibition by Other Nucleosides / Ki (μM) (Adenosine))?
Its Ki is 7.7 ± 0.8 µM.

How did the Km [7] turn out when “KpNupC2 (Klebsiella pneumoniae subsp. pneumoniae MGH 78578)” was run?
The Km was 11.6 ± 3.2 µM.

And the Vmax [7]?
Its Vmax is 0.0873 µmol/min/mg.

What about the Vmax/Km [7] of the same molecule?
Its Vmax/Km is 7500 µL/min/mg.

Which Ki [6, 13] does the source give for Nc1ccn([C@@H]2O[C@H](CO)[C@@H](O)[C@H]2O)c(=O)n1 [cytidine] here?
Its Ki is 6.7 ± 1.3 µM.

And the Ki [8, 13]?
Its Ki is 6.5 ± 1 µM.

And the Ki [9]?
Its Ki is 7.2 ± 1.4 µM.

What about the Ki [10] of the same molecule?
Its Ki is 20.2 ± 3.8 µM.

And the Ki [4, 13]?
Its Ki is 18.1 ± 4 µM.

Which Km [11] does the source give for CfNupC (Citrobacter freundii) here?
Its Km is 12.8 ± 1.3 µM.

What about the Vmax [11] of the same molecule?
Its Vmax is 0.102 µmol/min/mg.

And the Vmax/Km [11]?
The Vmax/Km was 7800 µL/min/mg.

How did the Km [11] turn out when CfNupG (Citrobacter freundii) was run?
Its Km is 2.7 ± 0.3 µM.

What about the Vmax [11] of the same molecule?
Its Vmax is 0.0474 µmol/min/mg.

What about the Vmax/Km [11] of the same molecule?
The Vmax/Km was 17200 µL/min/mg.

With O=c1ccn([C@@H]2O[C@H](CO)[C@@H](O)[C@H]2O)c(=O)[nH]1 [uridine] as the molecule, how does the Ki [8] read?
Its Ki is 6.1 ± 1 µM.

B1: KpNupG (Klebsiella pneumoniae subsp. pneumoniae MGH 78578) (protein)
chain: MNLKLQLKILSFLQFCLWGSWLTTLGSYMFVTLKFDGAAIGAVYSSLGIAAVLMPTLLGIVADKWISAKWVYAICHLVGALTLYLAAQVTTPGEMFLVILLNSLAYMPTLGLINTISYYRLQSAGLDIVTDFPPIRIWGTIGFILAMWGVSFSGFELSHMQLYIGATLSVLLTLFTLTLPHIPVANAQRNQSWTEMLGLNAFALFKNKRMAIFFIFSMMLGAELQITNMFGNTFLHSFDKDPLFAGSFIVEHASVLMSISQISETLFILTIPFFLSRYGIKNVMLISIVAWMLRFGLFAFGDPTPFGTVLLVLSMIVYGCAFDFFNISGSVFVEKEVRPEIRASAQGMFLMMTNGFGCILGGMVSGKVVEHFTVEGITDWQSVWLIFAGYSLVLAFAFVALFKYKHVRQPTAAQQSV
How did the Km [12] turn out when B1 was run?
The Km was 2.8 ± 0.3 µM.

And the Vmax [12]?
Its Vmax is 0.0456 µmol/min/mg.

What about the Vmax/Km [12] of the same molecule?
The Vmax/Km was 17100 µL/min/mg.

B2: NupG (Escherichia coli K-12) (protein)
chain: MNLKLQLKILSFLQFCLWGSWLTTLGSYMFVTLKFDGASIGAVYSSLGIAAVFMPALLGIVADKWLSAKWVYAICHTIGAITLFMAAQVTTPEAMFLVILINSFAYMPTLGLINTISYYRLQNAGMDIVTDFPPIRIWGTIGFIMAMWVVSLSGFELSHMQLYIGAALSAILVLFTLTLPHIPVAKQQANQSWTTLLGLDAFALFKNKRMAIFFIFSMLLGAELQITNMFGNTFLHSFDKDPMFASSFIVQHASIIMSISQISETLFILTIPFFLSRYGIKNVMMISIVAWILRFALFAYGDPTPFGTVLLVLSMIVYGCAFDFFNISGSVFVEKEVSPAIRASAQGMFLMMTNGFGCILGGIVSGKVVEMYTQNGITDWQTVWLIFAGYSVVLAFAFMAMFKYKHVRVPTGTQTVSH
How did the Km [12] turn out when B2 was run?
The Km was 2.8 ± 0.4 µM.

What about the Vmax [12] of the same molecule?
The Vmax was 0.0461 µmol/min/mg.

And the Vmax/Km [12]?
The Vmax/Km was 16600 µL/min/mg.
